Reference: PMC3394720

Biological target: MCMV nuclear capsids (murine cytomegalovirus (MCMV) | murine cytomegalovirus (MCMV), Smith strain)
Test: immunoelectron microscopy of purified nuclear capsids; nuclear capsids purified on a sucrose gradient from infected cells, adsorbed on grids, rabbit GFP antiserum and protein A-gold (10 nm); gold beads per capsid counted; WT capsids as background

## S-GFP-SCP fusion protein expressed ectopically from recombinant MCMV
  gold beads per capsid (anti-GFP immunogold) (gold beads per capsid): 15
